The values that follow come from patent US20220144916A1.

Experiment [1] concerns the target OVA/I-Ad on murine A20 antigen presenting cells pulsed with OVA323-339 peptide (hen; mouse) (UniProt P01012).
Experiment [2] addresses KJ1-26 clonotypic antibody.

For orientation: EC50 (read off the curve) means the concentration giving half of the maximal effect. Higher therefore signals weaker potency. In experiment [1], “DO11.10 scTCR-Fc fusion protein (Vβ-linker-Vα format)” displayed a Half-life of 5.5 min. Besides, the EC50 (read off the curve) in experiment [2] is 0.03 nM.
